Here are results for two molecules from patent US20240382610A1 (TALLAC THERAPEUTICS, published 2024).

The target of one assay is T1, human nectin-4 on cells (human, UniProt Q96NY8 32-510).
T1 construct: whole, on cells; also called PVRL4
T1 sequence (looked up): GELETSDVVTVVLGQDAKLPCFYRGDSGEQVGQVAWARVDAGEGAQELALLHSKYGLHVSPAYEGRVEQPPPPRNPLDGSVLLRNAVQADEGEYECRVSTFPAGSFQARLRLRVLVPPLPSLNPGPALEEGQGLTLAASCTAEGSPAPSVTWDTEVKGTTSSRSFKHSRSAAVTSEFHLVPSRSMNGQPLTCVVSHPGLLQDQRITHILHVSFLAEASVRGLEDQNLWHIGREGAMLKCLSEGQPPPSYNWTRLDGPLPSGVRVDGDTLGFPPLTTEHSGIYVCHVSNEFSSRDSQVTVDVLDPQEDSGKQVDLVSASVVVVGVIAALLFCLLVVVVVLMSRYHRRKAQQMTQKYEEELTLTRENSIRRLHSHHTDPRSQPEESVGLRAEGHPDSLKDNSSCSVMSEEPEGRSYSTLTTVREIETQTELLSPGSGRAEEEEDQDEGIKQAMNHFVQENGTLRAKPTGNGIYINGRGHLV
Briefly: flow cytometry MFI, MNK74 (nectin-4 positive) over AGS (negative). How it is done: Cell binding of nectin-4 antibodies. Cell binding of the nectin-4 antibodies was also assessed. MNK74 (nectin-4 positive) and AGS (nectin-4 negative) cells were obtained from ATCC and cultured according to their protocols. Cells were detached with TrypLE (Gibco) and washed by centrifugation for five minutes at 400×g with FACS buffer (PBS+2% FBS). Cells were resuspended in FACS buffer, plated in 96-well format (0.25 e6/well) then pelleted by centrifugation for five minutes at 400×g. Cells were stained at 4° C. in Fixable Viability Dye eFluor 506 (eBioscience) diluted 1:4,000 in PBS. […] Cells were centrifuged, washed once in FACS buffer and stained at 4° C. with Goat F(ab′)₂ anti-Mouse IgG APC (Southern Biotech) diluted 1:400 in FACS buffer for 30 minutes or appropriate anti-human IgG. Cells were centrifuged, washed twice and fixed in 0.5% paraformaldehyde. Cells were analyzed on Attune NxT Flow Cytometer (Thermo Fisher), with subsequent data analysis by Flowjo 10.7 (BD). Dead cells were excluded by gating on the eFluor 506-negative population. […] Binding was assessed by median fluorescent intensity.

Assay [1] has as its target T2, Human nectin-4 ECD-6His (TNT-175) (human, UniProt Q96NY8 32-349).
T2 construct: the entry holds the extracellular domain with the C-terminal 6His tag
T2 sequence: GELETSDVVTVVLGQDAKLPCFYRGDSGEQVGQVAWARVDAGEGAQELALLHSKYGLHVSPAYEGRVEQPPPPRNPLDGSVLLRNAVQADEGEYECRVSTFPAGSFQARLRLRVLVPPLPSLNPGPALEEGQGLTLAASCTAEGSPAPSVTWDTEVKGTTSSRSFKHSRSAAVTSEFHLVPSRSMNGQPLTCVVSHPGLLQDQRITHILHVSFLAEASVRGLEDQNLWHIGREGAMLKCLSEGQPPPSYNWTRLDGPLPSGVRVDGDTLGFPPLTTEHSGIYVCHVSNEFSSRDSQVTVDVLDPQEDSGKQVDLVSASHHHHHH
Briefly: competition ELISA; nectin-4 ECD premixed with TNT204, captured by the coat antibody; % of signal without premix antibody. How it is done: (§1) Competition experiments of nectin-4 antibodies. ELISA plates were coated overnight at 4° C. with goat anti-mouse IgG at […] in PBS. […] As positive control, nectin-4 was diluted at same concentrations without a premix antibody. Two wells per plate were allocated for diluent only as negative/background control. Plates were washed as previously, 50 μL/well of premix was added to each plate and incubated for one hour. Plates were washed then incubated at room temperature for one hour with Rabbit anti 6× HIS HRP diluted 1:4,000 in diluent. Plates were washed once more and incubated at room temperature for 20 minutes with 50 μL/well of ABTS substrate. […] Binding was measured as an Optical Density (O.D.) value normalized to background and calculated as a percentage of positive control at the lowest nectin-4 dilution for greatest resolution.

Assay [2] concerns the target T2, Human nectin-4 ECD-6His (TNT-175). Briefly: competition ELISA; nectin-4 ECD premixed with TNT206, captured by the coat antibody; % of signal without premix antibody. On the procedure: as §1
Assay [3] shares this target. Briefly: competition ELISA; nectin-4 ECD premixed with TNT208, captured by the coat antibody; % of signal without premix antibody. How it is done: as §1
Assay [4] has the same target. Briefly: competition ELISA; nectin-4 ECD premixed with TNT207, captured by the coat antibody; % of signal without premix antibody. On the procedure: as §1
For assay [5] the target is unchanged. Briefly: competition ELISA; nectin-4 ECD premixed with TNT212, captured by the coat antibody; % of signal without premix antibody. On the procedure: as §1
The target is the same in assay [6]. Briefly: competition ELISA; nectin-4 ECD premixed with TNT201, captured by the coat antibody; % of signal without premix antibody. How it is done:
as §1

For assay [7] the target is unchanged. Briefly: competition ELISA; nectin-4 ECD premixed with TNT209, captured by the coat antibody; % of signal without premix antibody. How it is done: as §1
Assay [8] has the same target. Briefly: competition ELISA; nectin-4 ECD premixed with TNT210, captured by the coat antibody; % of signal without premix antibody. On the procedure:
as §1

The target is the same in assay [9]. Briefly: competition ELISA; nectin-4 ECD premixed with TNT202, captured by the coat antibody; % of signal without premix antibody. How it is done:
as §1

The target is the same in assay [10]. Briefly: SPR ProteOn, mAb on protein A. How it is done: Initial testing of binding of nectin-4 antibodies to nectin-4. […] Biotinylated protein A (15 μg/mL) was immobilized to the surface of an NLC chip. 30 nM of purified mAb supernatant was diluted in PBS-T and captured over the protein A surface. Serial dilutions of human nectin-4 were injected over the mAb-coated chips, and binding kinetics were determined. Chips were regenerated using 4:1 v/v of IgG elution butter/4M NaCl.

For assay [11] the target is unchanged. Briefly: competition ELISA; nectin-4 ECD premixed with TNT211, captured by the coat antibody; % of signal without premix antibody. On the procedure:
as §1

The target is the same in assay [12]. Briefly: competition ELISA; nectin-4 ECD premixed with TNT205, captured by the coat antibody; % of signal without premix antibody. How it is done:
as §1

The target is the same in assay [13]. Briefly: competition ELISA; nectin-4 ECD premixed with TNT203, captured by the coat antibody; % of signal without premix antibody. On the procedure:
as §1

B1: TNT-153 (antibody, mouse IgG2a, kappa)
heavy: EVQLVESGGGLVQPGGSLRLSCAASGFTFSSYNMNWVRQAPGKGLEWVSYISSSSSTIYYADSVKGRFTISRDNAKNSLSLQMNSLRDEDTAVYYCARAYYYGMDVWGQGTTVTVSSAKTTAPSVYPLAPVCGDTTGSSVTLGCLVKGYFPEPVTLTWNSGSLSSGVHTFPAVLQSDLYTLSSSVTVTSSTWPSQSITCNVAHPASSTKVDKKIEPRGPTIKPCPPCKCPAPNLLGGPSVFIFPPKIKDVLMISLSPIVTCVVVDVSEDDPDVQISWFVNNVEVHTAQTQTHREDYNSTLRVVSALPIQHQDWMSGKEFKCKVNNKDLPAPIERTISKPKGSVRAPQVYVLPPPEEEMTKKQVTLTCMVTDFMPEDIYVEWTNNGKTELNYKNTEPVLDSDGSYFMYSKLRVEKKNWVERNSYSCSVVHEGLHNHHTTKSFSRTPGLLQGG
light: DIQMTQSPSSVSASVGDRVTITCRASQGISGWLAWYQQKPGKAPKFLIYAASTLQSGVPSRFSGSGSGTDFTLTISSLQPEDFATYYCQQANSFPPTFGGGTKVEIKRADAAPTVSIFPPSSEQLTSGGASVVCFLNNFYPKDINVKWKIDGSERQNGVLNSWTDQDSKDSTYSMSSTLTLTKDEYERHNSYTCEATHKTSTSPIVKSFNRNEC
B1: the “Fold-change of binding to MNK74 compared to control AGS” value in the assay with human nectin-4 on cells is 7.4 fold. Also, the “% of Positive” value worked out at 4.2% in assay [1]; 7.7% in assay [2]; 3.5% in [3]; 2.2% in assay [4]; 5.6% in assay [5]; 2.8% in [6]. Besides, the “% of Positive” value in assay [7] was 26.2%; in assay [8], 4%; in [9] it was 3.6%; in [11], 22.2%; in assay [12] it was 50%; in [13], 28.8%. Also, in assay [10], binding was characterised by a dissociation constant (Kd) of 3.8 nM. This molecule came in with a koff in [10] of 0.00399 s⁻¹. The kon in assay [10] stood at 1.05e+06 M⁻¹ s⁻¹.

B2: TNT-196 (antibody, mouse IgG2a, kappa)
heavy: EVQLVESGGGLVQPGGSLRLSCAASGFTFSDYYMSWIRQAPGKGLEWVSGISWNSGSIGYADSVKGRFTISRDNSKNTLYLQMNSLRAEDTAVYYCASSGSWYLPLDYWGQGTLVTVSSAKTTAPSVYPLAPVCGDTTGSSVTLGCLVKGYFPEPVTLTWNSGSLSSGVHTFPAVLQSDLYTLSSSVTVTSSTWPSQSITCNVAHPASSTKVDKKIEPRGPTIKPCPPCKCPAPNLLGGPSVFIFPPKIKDVLMISLSPIVTCVVVDVSEDDPDVQISWFVNNVEVHTAQTQTHREDYNSTLRVVSALPIQHQDWMSGKEFKCKVNNKDLPAPIERTISKPKGSVRAPQVYVLPPPEEEMTKKQVTLTCMVTDFMPEDIYVEWTNNGKTELNYKNTEPVLDSDGSYFMYSKLRVEKKNWVERNSYSCSVVHEGLHNHHTTKSFSRTPGRPQGFGPP
light: DIQMTQSPSSLSASVGDRVTITCQASQDISNYLNWYQQKPGKVPKLLIYAASTLQSGVPSRFSGSGSGTDFTLTISSLQPEDFATYYCQQSYSTPLTFGGGTKVEIKRADAAPTVSIFPPSSEQLTSGGASVVCFLNNFYPKDINVKWKIDGSERQNGVLNSWTDQDSKDSTYSMSSTLTLTKDEYERHNSYTCEATHKTSTSPIVKSFNRNEC
Consider B2, for which the “Fold-change of binding to MNK74 compared to control AGS” value with human nectin-4 on cells is 6 fold. In addition, the “% of Positive” value in assay [1] is 2.6%; in assay [2], 5.5%; in assay [3] it was 2%; in [4] it was 1.3%; in assay [5] it was 1.8%; in assay [6] it was 0.9%. The “% of Positive” value turned out to be 17.8% in [7]; 1.5% in [8]; 2.8% in assay [9]; 13.8% in assay [11]; 35.9% in assay [12]; 18.3% in assay [13]. This molecule returned a Kd in assay [10] of 15.2 nM. Also, the koff in assay [10] is 0.0245 s⁻¹. Besides, the association rate constant (kon) in assay [10] is 1.62e+06 M⁻¹ s⁻¹.
